T1: PUF4 RNA-binding domain (Saccharomyces cerevisiae, UniProt P25339 537-888)
T1 sequence: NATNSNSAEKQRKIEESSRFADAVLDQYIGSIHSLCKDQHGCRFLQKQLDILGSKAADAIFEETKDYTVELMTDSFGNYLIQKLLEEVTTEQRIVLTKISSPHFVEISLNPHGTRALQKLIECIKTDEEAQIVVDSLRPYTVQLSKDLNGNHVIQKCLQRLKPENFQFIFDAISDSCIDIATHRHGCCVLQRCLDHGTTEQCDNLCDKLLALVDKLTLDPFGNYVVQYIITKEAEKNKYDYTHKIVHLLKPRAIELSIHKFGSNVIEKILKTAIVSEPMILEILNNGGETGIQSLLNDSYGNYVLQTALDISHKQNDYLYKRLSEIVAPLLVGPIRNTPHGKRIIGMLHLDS


Molecular target: T1, PUF4 RNA-binding domain
Experiment: Mg; RNA-MaP; 20 mM Na-HEPES pH 7.4, 30 mM KOAc, 0.75 mM MgCl2, 0.1% Tween-20, 5% glycerol, 0.1 mg/mL BSA, 2 mM DTT; 25 C; 0.0125-409.6 nM protein
Details: tags: N-His6-TEV cleaved; C-SNAP kept, Cy3B-labelled; label: tethered on chip by stalled RNA polymerase

| Binder | Kd |
| --- | --- |
| UCUCUUUUUGUAUAUACCUCUCUU (ssRNA) [Id_ii_S1_P3E.2_K3.1_C3.2_[C-2T]_H3.1_A3.1_F3.1_T3.2_[T9C]_[A10C]] | 12.1 nM |
| UCUCUUACUGUAUAUACGUCUCUU (ssRNA) [Id_ii_S1_P3E.2_K3.1_C3.2_[C-2A]_[T-1C]_H3.1_A3.1_F3.1_T3.2_[T9C]_[A10G]] | 45.4 nM |
| UCUCUUCCUGUAUAUACCUCUCUU (ssRNA) [Id_ii_S1_P3E.2_K3.1_C3.2_[T-1C]_H3.1_A3.1_F3.1_T3.2_[T9C]_[A10C]] | 24.3 nM |
| UCUCUUUUUGUAUAUAUAUCUCUU (ssRNA) [Id_ii_S1_P3E.2_K3.1_C3.2_[C-2T]_H3.1_A3.1_F3.1_T3.2] | 4.57 nM |
| UCUCUUAGUGUAUAUAAUUCUCUU (ssRNA) [Id_ii_S1_P3E.2_K3.1_C3.2_[C-2A]_[T-1G]_H3.1_A3.1_F3.1_T3.2_[T9A]_[A10T]] | 10.1 nM |
| UCUCUUUGUAUCUUAUCUCUU (ssRNA) [Ic_S1_P4E.1_K4.1_C4.1_H4.1_A4.1_[A6C]_F4.1_T4.1] | 4.1 nM |
| UCUCUUUUUGUAUAUAAAUCUCUU (ssRNA) [Id_ii_S1_P3E.2_K3.1_C3.2_[C-2T]_H3.1_A3.1_F3.1_T3.2_[T9A]] | 10.5 nM |
| UCUCUUAUUGUAUAUACGUCUCUU (ssRNA) [Id_ii_S1_P3E.2_K3.1_C3.2_[C-2A]_H3.1_A3.1_F3.1_T3.2_[T9C]_[A10G]] | 26.9 nM |
| UCUCUUCGUGUAUAUAUAUCUCUU (ssRNA) [Id_ii_S1_P3E.2_K3.1_C3.2_[T-1G]_H3.1_A3.1_F3.1_T3.2] | 5.37 nM |
| UCUCUUACUGUAUAUACUUCUCUU (ssRNA) [Id_ii_S1_P3E.2_K3.1_C3.2_[C-2A]_[T-1C]_H3.1_A3.1_F3.1_T3.2_[T9C]_[A10T]] | 15 nM |
| UCUCUUCGUGUAUAUAUCUCUCUU (ssRNA) [Id_ii_S1_P3E.2_K3.1_C3.2_[T-1G]_H3.1_A3.1_F3.1_T3.2_[A10C]] | 7.58 nM |
| UCUCUUUUUGUAUAUAGUUCUCUU (ssRNA) [Id_ii_S1_P3E.2_K3.1_C3.2_[C-2T]_H3.1_A3.1_F3.1_T3.2_[T9G]_[A10T]] | 4.16 nM |
| UCUCUUACUGUAUAUAUCUCUCUU (ssRNA) [Id_ii_S1_P3E.2_K3.1_C3.2_[C-2A]_[T-1C]_H3.1_A3.1_F3.1_T3.2_[A10C]] | 9.47 nM |
| UCUCUUUUUGUAUAUAUUUCUCUU (ssRNA) [Id_ii_S1_P3E.2_K3.1_C3.2_[C-2T]_H3.1_A3.1_F3.1_T3.2_[A10T]] | 6.67 nM |
| UCUCUUAUUGUAUAUAGUUCUCUU (ssRNA) [Id_ii_S1_P3E.2_K3.1_C3.2_[C-2A]_H3.1_A3.1_F3.1_T3.2_[T9G]_[A10T]] | 6.25 nM |
| UCUCUUACUGUAUAUAGCUCUCUU (ssRNA) [Id_ii_S1_P3E.2_K3.1_C3.2_[C-2A]_[T-1C]_H3.1_A3.1_F3.1_T3.2_[T9G]_[A10C]] | 9.36 nM |

| Binder | Kd |
| --- | --- |
| UCUCUUUUUGUAUAUAACUCUCUU (ssRNA) [Id_ii_S1_P3E.2_K3.1_C3.2_[C-2T]_H3.1_A3.1_F3.1_T3.2_[T9A]_[A10C]] | 9.6 nM |
| UCUCUUUCUGUAUUAUCUCUU (ssRNA) [Ib_S1_P4E.1_K4.1_C4.1_H4.1_[G2C]_[A4G]_A4.1_F4.1_T4.1] | 25.1 nM |
| UCUCUUUAUGUAUUAUCUCUU (ssRNA) [Ib_S1_P4E.1_K4.1_C4.1_H4.1_[G2A]_[A4G]_A4.1_F4.1_T4.1] | 36 nM |
| UCUCUUAGUGUAUAUAUUUCUCUU (ssRNA) [Id_ii_S1_P3E.2_K3.1_C3.2_[C-2A]_[T-1G]_H3.1_A3.1_F3.1_T3.2_[A10T]] | 10 nM |
| UCUCUUCGUGUAUAUAGGUCUCUU (ssRNA) [Id_ii_S1_P3E.2_K3.1_C3.2_[T-1G]_H3.1_A3.1_F3.1_T3.2_[T9G]_[A10G]] | 9.62 nM |
| UCUCUUAUUGUAUAUAGCUCUCUU (ssRNA) [Id_ii_S1_P3E.2_K3.1_C3.2_[C-2A]_H3.1_A3.1_F3.1_T3.2_[T9G]_[A10C]] | 12.1 nM |
| UCUCUUCGUGUAUAUAAAUCUCUU (ssRNA) [Id_ii_S1_P3E.2_K3.1_C3.2_[T-1G]_H3.1_A3.1_F3.1_T3.2_[T9A]] | 11.9 nM |
| UCUCUUUUUGUAUAUAAGUCUCUU (ssRNA) [Id_ii_S1_P3E.2_K3.1_C3.2_[C-2T]_H3.1_A3.1_F3.1_T3.2_[T9A]_[A10G]] | 11.6 nM |
| UCUCUUAUUGUAUAUAACUCUCUU (ssRNA) [Id_ii_S1_P3E.2_K3.1_C3.2_[C-2A]_H3.1_A3.1_F3.1_T3.2_[T9A]_[A10C]] | 12.9 nM |
| UCUCUUAAUGUAUAUAUGUCUCUU (ssRNA) [Id_ii_S1_P3E.2_K3.1_C3.2_[C-2A]_[T-1A]_H3.1_A3.1_F3.1_T3.2_[A10G]] | 12.7 nM |
| UCUCUUUUUGUAUUAUCUCUU (ssRNA) [Ib_S1_P4E.1_K4.1_C4.1_H4.1_[G2T]_[A4G]_A4.1_F4.1_T4.1] | 25.7 nM |
| UCUCUUACUGUAUAUACCUCUCUU (ssRNA) [Id_ii_S1_P3E.2_K3.1_C3.2_[C-2A]_[T-1C]_H3.1_A3.1_F3.1_T3.2_[T9C]_[A10C]] | 11.9 nM |
| UCUCUUACUGUAUAUAUGUCUCUU (ssRNA) [Id_ii_S1_P3E.2_K3.1_C3.2_[C-2A]_[T-1C]_H3.1_A3.1_F3.1_T3.2_[A10G]] | 17.2 nM |
| UCUCUUCGUGUAUAUAGUUCUCUU (ssRNA) [Id_ii_S1_P3E.2_K3.1_C3.2_[T-1G]_H3.1_A3.1_F3.1_T3.2_[T9G]_[A10T]] | 3.77 nM |
| UCUCUUACUGUAUAUAUUUCUCUU (ssRNA) [Id_ii_S1_P3E.2_K3.1_C3.2_[C-2A]_[T-1C]_H3.1_A3.1_F3.1_T3.2_[A10T]] | 10.8 nM |
| UCUCUUAUUGUAUAUAUGUCUCUU (ssRNA) [Id_ii_S1_P3E.2_K3.1_C3.2_[C-2A]_H3.1_A3.1_F3.1_T3.2_[A10G]] | 12.3 nM |
